Experimental data from article PMC5773619, “Specific cyclic ADP-ribose phosphohydrolase obtained by mutagenic engineering of Mn^2+-dependent ADP-ribose/CDP-alcohol diphosphatase” (Scientific Reports, 2018).
Changes are numbered by the printed parent chain. Names may count otherwise.

B1: human ADPRibase-Mn (Homo sapiens; C253V) (protein)
chain: MDDKPNPEALSDSSERLFSFGVIADVQFADLEDGFNFQGTRRRYYRHSLLHLQGAIEDWNNESSMPCCVLQLGDIIDGYNAQYNASKKSLELVMDMFKRLKVPVHHTWGNHEFYNFSREYLTHSKLNTKFLEDQIVHHPETMPSEDYYAYHFVPFPKFRFILLDAYDLSVLGVDQSSPKYEQCMKILREHNPNTELNSPQGLSEPQFVQFNGGFSQEQLNWLNEVLTFSDTNQEKVVIVSHLPIYPDASDNVVLAWNYRDALAVIWSHECVVCFFAGHTHDGGYSEDPFGVYHVNLEGVIETAPDSQAFGTVHVYPDKMMLKGRGRVPDRIMNYKKERAFHC
notes: human liver cDNA, pGEX-6P-3-hADPRM, E. coli BL21; GST tag removed with PreScission protease, N-terminal extension … kept
B2: human ADPRibase-Mn (Homo sapiens; C253G/F37A/L196F/V252A) (protein)
chain: B1 chain with F37A, L196F, V252A, V253G
notes: as for B1

Legend:
Format in all cases: biochemical, Homo sapiens
Details in all cases: 50 mM Tris-HCl pH 7.5, 0.4 mM MnCl2, 0.1 mg/ml BSA, 37 °C
[1] = substrate: N=c1c2ncn3c2ncn1[C@@H]1O[C@H](COP(=O)(O)OP(=O)(O)OC[C@H]2O[C@@H]3[C@H](O)[C@@H]2O)[C@@H](O)[C@H]1O; assay: HPLC assay of pRibAMP formation
Text: HPLC assay of pRibAMP formation on human ADPRibase-Mn | displaying a decreased kcat for cADPR (Supplementary Table S1)

[2] = substrate: Nc1ncnc2c1ncn2[C@@H]1O[C@H](CO)[C@H]2OP(=O)(O)O[C@H]21; assay: colorimetric phosphate assay coupled to alkaline phosphatase
[3] = substrate: C[N+](C)(C)CCOP(=O)(O)OP(=O)([O-])OC[C@H]1O[C@@H](n2ccc(N)nc2=O)[C@H](O)[C@@H]1O; assay: as above
[4] = substrate: Nc1ncnc2c1ncn2[C@@H]1O[C@H](CO)[C@H]2OP(=O)(O)O[C@H]21; assay: colorimetric phosphate assay coupled to alkaline phosphatase, Michaelis-Menten fit
[5] = substrate: C[N+](C)(C)CCOP(=O)(O)OP(=O)([O-])OC[C@H]1O[C@@H](n2ccc(N)nc2=O)[C@H](O)[C@@H]1O; assay: as above
[6] = substrate: N=c1c2ncn3c2ncn1[C@@H]1O[C@H](COP(=O)(O)OP(=O)(O)OC[C@H]2O[C@@H]3[C@H](O)[C@@H]2O)[C@@H](O)[C@H]1O; assay: HPLC assay of pRibAMP formation, initial rates, Michaelis-Menten fit

Protein	Km [1] [mM]	kcat [1] [s⁻¹]	Km [2]	kcat [2] [s⁻¹]	Km [3]	kcat [3] [s⁻¹]	Km [4] [mM]	kcat [4] [s⁻¹]	Km [5] [mM]	kcat [5] [s⁻¹]	Km [6] [mM]	kcat [6] [s⁻¹]
B1	0.56 ± 0.18	1.6 ± 0.1	2,380 ± 250 µM	148 ± 8	1,120 ± 115 µM	109 ± 9	–	–	–	–	–	–
B2	–	–	–	–	–	–	8.7	12	10.6	37	0.14	13
